From publication PMC3945637 (Frontiers in Pharmacology, 2014)
Peptide text beside a SMILES is read from it.

Assays:
[1] = target: T1, rabbit B2R-green fluorescent protein (B2R-GFP) (Oryctolagus cuniculus, UniProt Q28642); test: [3H]BK binding competition to B2R-GFP stably expressed in intact HEK 293 cells
T1 construct: expressed in transfected cells
T1 sequence (Q28642 1-367): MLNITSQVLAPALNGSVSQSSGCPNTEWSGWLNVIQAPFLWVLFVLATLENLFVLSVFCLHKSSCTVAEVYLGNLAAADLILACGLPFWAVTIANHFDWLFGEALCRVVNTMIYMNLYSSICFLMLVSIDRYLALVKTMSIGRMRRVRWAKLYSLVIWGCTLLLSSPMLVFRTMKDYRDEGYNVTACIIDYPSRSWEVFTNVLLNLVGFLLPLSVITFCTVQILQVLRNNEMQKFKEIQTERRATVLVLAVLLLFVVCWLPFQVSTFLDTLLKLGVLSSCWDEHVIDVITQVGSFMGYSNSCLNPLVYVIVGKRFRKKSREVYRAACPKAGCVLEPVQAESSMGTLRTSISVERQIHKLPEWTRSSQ
Experimental: (§1) Affinity for the B2R was evaluated using a radioligand binding competition assay performed at 0 °C in the presence of peptidase inhibitors that included captopril ([Houle et al., 2000]). […] Other HEK 293a cells that transiently expressed human recombinant ACE were used to perform a [^3H]enalaprilat binding assay as described ([Koumbadinga et al., 2010]; the peACE vector was a gift from Prof. P. Corvol, Paris, France).
(§2) Results are presented as mean ± SEM. Radioligand binding data were fitted by non-linear regression to a one-site competition equation using a least-square method (Prism 4.0, GraphPad Software Inc., San Diego, CA, USA) and IC50 values calculated from this procedure. The same computer program was used to draw concentration-effect curves (least square fitting of sigmoidal dose-response equation with variable slope) and to derive contractile EC50 values. The qualitative effect of treatments on the distribution of the B2R-GFP fluorescent protein (either located at the plasma membrane or submitted to internalization) was evaluated for each HEK 293 cell in large microphotographic records and proportion of affected cells were compared using the χ^2 statistics to determine drug effect on the subcellular receptor distribution.

human B1R (B1R-FLAG) = target: T2, human B1R (B1R-FLAG) (Homo sapiens, UniProt P46663); test: [3H]Lys-des-Arg9-BK binding competition to B1R-FLAG transiently expressed in HEK 293a cells; settings: log of IC50; 1 nM [3H]Lys-des-Arg9-BK, HEK 293a cells
T2 construct: FLAG; expressed in transfected cells
T2 sequence (P46663 1-353): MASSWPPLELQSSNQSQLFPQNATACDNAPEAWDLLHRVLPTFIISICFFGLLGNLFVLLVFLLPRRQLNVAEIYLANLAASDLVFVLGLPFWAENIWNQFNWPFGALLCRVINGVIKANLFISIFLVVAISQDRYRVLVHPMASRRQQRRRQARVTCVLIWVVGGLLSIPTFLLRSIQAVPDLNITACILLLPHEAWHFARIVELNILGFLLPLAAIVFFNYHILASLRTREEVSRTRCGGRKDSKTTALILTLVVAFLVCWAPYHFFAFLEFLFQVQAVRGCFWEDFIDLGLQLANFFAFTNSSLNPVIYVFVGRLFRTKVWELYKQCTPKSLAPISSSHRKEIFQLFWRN

[2] = target: T3, BK B2R (human umbilical vein rings) (Homo sapiens, UniProt P30411); test: Human isolated umbilical vein contractility assay; format: cell-based
T3 construct: from tissue; host or cells: human umbilical vein rings
T3 sequence (P30411 1-391): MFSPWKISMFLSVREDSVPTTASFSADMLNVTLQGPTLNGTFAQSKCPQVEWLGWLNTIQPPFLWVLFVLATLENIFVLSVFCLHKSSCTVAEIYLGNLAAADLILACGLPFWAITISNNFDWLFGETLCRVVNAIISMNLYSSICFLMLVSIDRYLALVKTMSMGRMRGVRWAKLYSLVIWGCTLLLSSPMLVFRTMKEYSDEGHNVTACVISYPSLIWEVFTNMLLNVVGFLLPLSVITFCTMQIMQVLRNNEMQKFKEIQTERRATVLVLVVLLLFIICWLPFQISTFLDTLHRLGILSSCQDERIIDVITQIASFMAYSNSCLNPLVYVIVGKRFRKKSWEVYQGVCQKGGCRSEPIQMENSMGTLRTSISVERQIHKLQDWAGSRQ
Excerpt: The institutional research ethics board (CHU de Québec) approved the anonymous use of human umbilical cord segments obtained after elective cesarean section deliveries. Informed consent was obtained from mothers. […] Tissues were used only once and discarded; controls curves were obtained from other vascular rings from the same vein.
as §2

human recombinant ACE [3] = target: T4, human recombinant ACE (Homo sapiens, UniProt P12821); test: [3H]enalaprilat binding competition to recombinant ACE transiently expressed in HEK 293a cells; design: expressed in transfected cells; host or cells: HEK 293a cells, transient expression (peACE vector, gift from Prof. P. Corvol)
T4 sequence (P12821 30-1306): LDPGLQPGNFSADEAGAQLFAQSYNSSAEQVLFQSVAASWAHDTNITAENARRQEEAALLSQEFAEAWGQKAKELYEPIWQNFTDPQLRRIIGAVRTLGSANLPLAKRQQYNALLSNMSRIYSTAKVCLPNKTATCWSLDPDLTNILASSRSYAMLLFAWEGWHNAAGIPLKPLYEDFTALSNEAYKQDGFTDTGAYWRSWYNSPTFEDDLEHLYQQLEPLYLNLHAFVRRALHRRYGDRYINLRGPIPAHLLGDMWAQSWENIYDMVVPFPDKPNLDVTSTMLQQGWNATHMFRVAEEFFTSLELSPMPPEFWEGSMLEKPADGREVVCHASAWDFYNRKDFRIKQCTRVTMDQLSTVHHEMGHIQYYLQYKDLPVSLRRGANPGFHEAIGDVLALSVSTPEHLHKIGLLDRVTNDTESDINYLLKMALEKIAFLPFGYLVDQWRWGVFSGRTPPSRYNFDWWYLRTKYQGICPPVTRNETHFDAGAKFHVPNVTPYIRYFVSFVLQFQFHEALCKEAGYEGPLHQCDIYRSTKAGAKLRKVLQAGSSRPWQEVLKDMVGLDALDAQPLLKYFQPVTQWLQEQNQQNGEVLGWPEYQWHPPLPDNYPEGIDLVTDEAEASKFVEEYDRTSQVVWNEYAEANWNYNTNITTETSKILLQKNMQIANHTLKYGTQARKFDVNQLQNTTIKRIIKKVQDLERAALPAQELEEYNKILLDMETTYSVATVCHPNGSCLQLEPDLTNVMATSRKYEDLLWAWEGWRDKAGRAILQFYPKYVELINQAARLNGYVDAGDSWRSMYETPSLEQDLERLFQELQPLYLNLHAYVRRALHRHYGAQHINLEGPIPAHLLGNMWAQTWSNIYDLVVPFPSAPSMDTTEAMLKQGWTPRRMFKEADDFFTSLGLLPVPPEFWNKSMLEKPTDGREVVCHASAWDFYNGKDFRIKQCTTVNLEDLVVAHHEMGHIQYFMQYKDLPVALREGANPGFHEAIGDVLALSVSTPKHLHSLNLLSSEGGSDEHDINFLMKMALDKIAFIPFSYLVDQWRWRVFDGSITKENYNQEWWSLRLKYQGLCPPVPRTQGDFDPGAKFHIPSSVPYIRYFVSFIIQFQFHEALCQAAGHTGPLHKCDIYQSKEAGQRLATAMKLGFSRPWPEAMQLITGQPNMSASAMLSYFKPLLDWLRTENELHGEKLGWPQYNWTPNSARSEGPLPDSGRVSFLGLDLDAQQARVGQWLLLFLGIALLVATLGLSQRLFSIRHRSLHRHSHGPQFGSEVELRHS
Experimental: as §1, §2

[4] = target: endogenous B2 receptor of the human umbilical vein (human (endogenous in umbilical vein)) (UniProt P30411)
[5] = target: rabbit B2R-green fluorescent protein (rabbit) (UniProt Q28642); test: radioligand binding; competition of 3 nM [^3H]BK binding to adherent intact HEK 293 cells stably expressing rabbit B2R-GFP by unlabeled peptides; 0 °C; peptidase inhibitors that included captopril; one-site competition fit
[6] = target: human B1R (B1R-FLAG vector) (human) (UniProt P46663); test: radioligand binding; competition of 1 nM [^3H]Lys-des-Arg^9-BK binding to HEK 293a cells transiently expressing human B1R (B1R-FLAG vector); one-site competition fit
human recombinant ACE [7] = target: T4, human recombinant ACE; test: radioligand binding; competition of 2 nM [^3H]enalaprilat binding to HEK 293a cells transiently expressing human recombinant ACE by BK and analogs; one-site competition fit

Q: How did the “IC50 for B2R-GFP relative to unlabeled BK (fold greater IC50 / lower affinity)” value ([1]; [3H]BK binding competition, vs BK) turn out when N=C(N)NCCC[C@H](NC(=O)[C@H](Cc1ccccc1)NC(=O)[C@@H]1CCCN1C(=O)[C@H](CO)NC(=O)[C@H](Cc1ccccc1)NC(=O)CNC(=O)[C@@H]1CCCN1C(=O)[C@@H]1CCCN1C(=O)[C@@H](N)CCCNC(=N)N)C(=O)N[C@@H](CO)C(=O)N[C@@H](Cc1ccc(O)cc1)C(=O)O [BK-Ser-Tyr] (H-RPPGFSPFRSY-OH; N-terminus and C-terminus assumed) was run?
A: Its value is 102 fold.

Q: And the “[3H]BK binding to B2R-GFP log(IC50) ± SE” value ([1]; log of IC50, 3 nM [3H]BK, 0 °C, with peptidase inhibitors incl. captopril, HEK 293 cells)?
A: The value was -5.79 ± 0.13.

Q: What about the “[3H]Lys-des-Arg9-BK binding to B1R-FLAG log(IC50) ± SE” value (human B1R (B1R-FLAG)) of the same compound?
A: Its value is >-5.

Q: And the “fold less potent than BK as contractile agent” value ([2]; control conditions, vs BK)?
A: The value was 6.9 fold.

Q: And the “decrease of apparent contractile potency by ACE blockade” value ([2]; enalaprilat 1 μM vs paired control tissues)?
A: The value was 3.9 fold.

Q: What about the “+Peptidase inhibitor log(EC50) ± SE” value ([2]; log of contractile EC50, enalaprilat 1 μM, 30 min before agonist) of the same compound?
A: Its value is -6.32 ± 0.06.

Q: What about the “Control (DMSO vehicle) log(EC50) ± SE” value ([2]; log of contractile EC50, no peptidase inhibitor, paired tissues) of the same compound?
A: Its value is -6.90 ± 0.09.

Q: And the “fold lesser affinity vs. BK for ACE” value (human recombinant ACE [3]; [3H]enalaprilat binding competition, vs BK)?
A: Its value is 3.94 fold.

Q: And the “[3H]enalaprilat binding to ACE log(IC50) ± SE” value (human recombinant ACE [3]; log of IC50, 2 nM [3H]enalaprilat, HEK 293a cells)?
A: Its value is -5.21 ± 0.15.

Q: Which results are given for Arg-Pro-BK (peptide)?
A: log(EC50) of contraction of the human isolated umbilical vein, control (DMSO vehicle), Figure 5B [4]: -7.39 log M; log(EC50) of contraction of the human isolated umbilical vein, with NVP-DPP728 1 μM, Figure 5B [4]: -7.29 log M; log(EC50) of contraction of the human isolated umbilical vein, with amastatin 3 μM, Figure 5B [4]: -7.35 log M; log(IC50) [5]: -7.61 log M

Q: BK-Ala-Pro (peptide) was tested. Which log(EC50) of contraction of the human isolated umbilical vein, with ACE blocked by enalaprilat 1 μM, Figure 3D [4] did it give?
A: Its log(EC50) of contraction of the human isolated umbilical vein, with ACE blocked by enalaprilat 1 μM, Figure 3D is -5.55 log M.

Q: What about the log(IC50) [6] of the same compound?
A: The log(IC50) was > -5 log M.

Q: What about the log(IC50) (human recombinant ACE [7]) of the same compound?
A: Its log(IC50) is -5.46 log M.

Q: And the log(IC50) [5]?
A: The log(IC50) was -5.11 log M.

Q: Which results are given for BK-Arg (peptide)?
A: log(IC50) [6]: -5.12 log M; log(IC50) [5]: -6.34 log M

Q: For BK-His-Leu (peptide), which log(EC50) of contraction of the human isolated umbilical vein, with ACE blocked by enalaprilat 1 μM, Figure 3C [4] is on record?
A: Its log(EC50) of contraction of the human isolated umbilical vein, with ACE blocked by enalaprilat 1 μM, Figure 3C is -5.34 log M.

Q: And the log(IC50) [6]?
A: Its log(IC50) is > -5 log M.

Q: And the log(IC50) (human recombinant ACE [7])?
A: The log(IC50) was -5.28 log M.

Q: What about the log(IC50) [5] of the same compound?
A: The log(IC50) was -5.24 log M.

Q: How did the log(EC50) of contraction of the human isolated umbilical vein, with ACE blocked by enalaprilat 1 μM, Figure 3B [4] turn out when BK-Ser-Tyr (peptide) was run?
A: Its log(EC50) of contraction of the human isolated umbilical vein, with ACE blocked by enalaprilat 1 μM, Figure 3B is -6.32 log M.

Q: What about the log(IC50) [6] of the same compound?
A: Its log(IC50) is > -5 log M.

Q: And the log(IC50) (human recombinant ACE [7])?
A: The log(IC50) was -5.21 log M.

Q: What about the log(IC50) [5] of the same compound?
A: The log(IC50) was -5.79 log M.
